# Molecular target: T1, biotin-labelled EZH2 protein (UniProt Q15910 1-746, limits assumed, biotin label (EZ-link NHS-PEO4-Biotinylation kit))
# T1 construct: Probe in solution (1 ug/ml) on the KDM2B peptide microarray; also called NHS-PEO4-Biotinylation-labelled EZH2 protein; recombinant protein
# Assay: KDM2B peptide array probed with biotin-EZH2 1 ug/ml, SA-HRP/ECL;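 further: Background-corrected optical density of each spot on the membrane, given as percent of the brightest spot (100%), color developed for 5 minutes; 100% is the highest background-corrected spot optical density on the membrane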
# Procedure: After blocking, the polypeptide microarray was incubated with biotin-labeled target protein for hybridization, visualized with the chemical chromogenic substrate and imaged using a Chempchemi digital imager. The image of colored polypeptide microarray was analyzed for the optical density of the colored points. Particularly, the optical density of each colored point was calculated using the optical density of the respective surrounding background as a reference for background correction. The highest optical density value of the colored point on membrane was set to 100%, and the optical density value of the remaining colored points was converted into percentages relative to the highest value. The points with an optical density percentage of more than 30% on the polypeptide membrane and also with an optical density percentage of less than 30% on the negative membrane were defined as positive colored points.
# For the hybridization experiment, a solution of NHS-PEO4-Biotinylation-labelled EZH2 protein (1 μg/ml) was used for the hybridization of the polypeptide microarray. Streptavidin-HRP was used to amplify the reaction signal according to the experimental procedure and conditions described above, and the time of color development was 5 minutes.
# T1 sequence (Q15910 whole entry): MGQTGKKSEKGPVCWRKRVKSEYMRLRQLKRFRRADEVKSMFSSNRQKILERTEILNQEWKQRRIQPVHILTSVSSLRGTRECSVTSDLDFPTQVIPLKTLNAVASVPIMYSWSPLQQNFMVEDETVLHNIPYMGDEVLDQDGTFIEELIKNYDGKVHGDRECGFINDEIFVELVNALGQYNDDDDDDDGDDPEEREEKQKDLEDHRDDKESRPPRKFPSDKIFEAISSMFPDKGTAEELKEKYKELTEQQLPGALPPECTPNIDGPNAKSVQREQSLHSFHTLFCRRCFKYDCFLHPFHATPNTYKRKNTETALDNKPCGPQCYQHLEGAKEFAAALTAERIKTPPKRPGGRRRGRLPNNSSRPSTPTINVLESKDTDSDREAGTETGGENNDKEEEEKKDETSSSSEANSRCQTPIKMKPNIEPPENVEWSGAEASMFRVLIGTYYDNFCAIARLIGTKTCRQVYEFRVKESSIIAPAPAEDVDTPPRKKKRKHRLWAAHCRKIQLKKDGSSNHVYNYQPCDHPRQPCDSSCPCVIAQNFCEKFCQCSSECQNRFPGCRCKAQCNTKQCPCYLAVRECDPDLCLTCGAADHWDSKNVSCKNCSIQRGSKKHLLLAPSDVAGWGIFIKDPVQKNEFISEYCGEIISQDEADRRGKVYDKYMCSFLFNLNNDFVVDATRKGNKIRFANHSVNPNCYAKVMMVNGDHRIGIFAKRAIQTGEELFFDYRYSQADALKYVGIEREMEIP
row,Binder,Intensity (%)
1,MAGPQMGGSAEDHPP [peptide 1],0.25
2,DRQRYDENEDLSDVE [peptide 10],0
3,GSPATEVSAKWTHLT [peptide 100],0
4,EVSAKWTHLTEFELK [peptide 101],2.69
5,WTHLTEFELKGLKAL [peptide 102],0
6,EFELKGLKALVEKLE [peptide 103],4.44
7,GLKALVEKLESLPEN [peptide 104],8.01
8,VEKLESLPENKKCVP [peptide 105],20.3
9,SLPENKKCVPEGIED [peptide 106],3.77
10,KKCVPEGIEDPQALL [peptide 107],0
11,EGIEDPQALLEGVKN [peptide 108],0
12,PQALLEGVKNVLKEH [peptide 109],0
13,DENEDLSDVEEIVSV [peptide 11],0
14,EGVKNVLKEHADDDP [peptide 110],0
15,VLKEHADDDPSLAIT [peptide 111],0.99
16,ADDDPSLAITGVPVV [peptide 112],0
17,SLAITGVPVVTWPKK [peptide 113],1.55
18,GVPVVTWPKKTPKNR [peptide 114],0
19,TWPKKTPKNRAVGRP [peptide 115],0
20,TPKNRAVGRPKGKLG [peptide 116],0
21,AVGRPKGKLGPASAV [peptide 117],0
22,KGKLGPASAVKLAAN [peptide 118],0
23,PASAVKLAANRTTAG [peptide 119],0
24,LSDVEEIVSVRGFSL [peptide 12],0.13

row,Binder,Intensity (%)
1,KLAANRTTAGARRRR [peptide 120],0
2,RTTAGARRRRTRCRK [peptide 121],1.31
3,ARRRRTRCRKCEACL [peptide 122],100
4,TRCRKCEACLRTECG [peptide 123],97.3
5,CEACLRTECGECHFC [peptide 124],0
6,RTECGECHFCKDMKK [peptide 125],1.57
7,ECHFCKDMKKFGGPG [peptide 126],6.05
8,FGGPGRMKQSCIMRQ [peptide 128],0
9,RMKQSCIMRQCIAPV [peptide 129],9.37
10,CIAPVLPHTAVCLVC [peptide 131],100
11,LPHTAVCLVCGEAGK [peptide 132],100
12,VCLVCGEAGKEDTVE [peptide 133],12
13,GEAGKEDTVEEEEGK [peptide 134],0
14,EEEGKFNLMLMECSI [peptide 136],0
15,FNLMLMECSICNEII [peptide 137],0.24
16,MECSICNEIIHPGCL [peptide 138],26.8
17,CNEIIHPGCLKIKES [peptide 139],85.1
18,HPGCLKIKESEGVVN [peptide 140],0
19,KIKESEGVVNDELPN [peptide 141],10.8
20,EGVVNDELPNCWECP [peptide 142],100
21,DELPNCWECPKCNHA [peptide 143],0
22,CWECPKCNHAGKTGK [peptide 144],0
23,QKRGPGFKYASNLPG [peptide 147],0
24,GFKYASNLPGSLLKE [peptide 148],0

row,Binder,Intensity (%)
1,EEKLRSQLYQGDFVH [peptide 15],0
2,QKMNRDNKEGQEPAK [peptide 151],100
3,DNKEGQEPAKRRSEC [peptide 152],97.8
4,QEPAKRRSECEEAPR [peptide 153],41.6
5,RRSDEHSKKVPPDGL [peptide 156],0
6,HSKKVPPDGLLRRKS [peptide 157],18.4
7,PPDGLLRRKSDDVHL [peptide 158],0
8,LRRKSDDVHLRKKRK [peptide 159],0
9,SQLYQGDFVHAMEGK [peptide 16],1.87
10,RKKRKYEKPQELSGR [peptide 161],0
11,YEKPQELSGRKRASS [peptide 162],0
12,GSSSHLSPRPPLGSS [peptide 166],0.84
13,LSPRPPLGSSLSPWW [peptide 167],0
14,PLGSSLSPWWRSSLT [peptide 168],0
15,LSPWWRSSLTYFQQQ [peptide 169],0
16,GDFVHAMEGKDFNYE [peptide 17],0
17,RSSLTYFQQQLKPGK [peptide 170],2.26
18,YFQQQLKPGKEDKLF [peptide 171],0
19,LKPGKEDKLFRKKRR [peptide 172],0
20,EDKLFRKKRRSWKNA [peptide 173],0
21,RKKRRSWKNAEDRMA [peptide 174],0.47
22,SWKNAEDRMALANKP [peptide 175],0
23,EDRMALANKPLRRFK [peptide 176],0

# Reference: US20250197451A1 (CAPITAL MEDICAL UNIVERSITY SCHOOL OF STOMATOLOGY, published 2025)
